From article PMC11533527, “A yeast two-hybrid system to obtain triple-helical ligands from combinatorial random peptide libraries” (The Journal of Biological Chemistry, 2024)
Numbering of substitutions follows the chain as printed. Names may count otherwise.

B1: synthetic triple-helical peptide pepfreq (peptide)
chain: YPPGPPGPPGPPGPRGRRGLHGLPGPPGPPGPPGPPG
HELM: PEPTIDE1{Y.P.[Hyp].G.P.[Hyp].G.P.[Hyp].G.P.[Hyp].G.P.R.G.R.R.G.L.H.G.L.[Hyp].G.P.[Hyp].G.P.[Hyp].G.P.[Hyp].G.P.[Hyp].G.[am]}$$$$V2.0; N-terminus assumed
SMILES: CC(C)C[C@H](NC(=O)CNC(=O)[C@H](CCCNC(=N)N)NC(=O)[C@H](CCCNC(=N)N)NC(=O)CNC(=O)[C@H](CCCNC(=N)N)NC(=O)[C@@H]1CCCN1C(=O)CNC(=O)[C@@H]1C[C@@H](O)CN1C(=O)[C@@H]1CCCN1C(=O)CNC(=O)[C@@H]1C[C@@H](O)CN1C(=O)[C@@H]1CCCN1C(=O)CNC(=O)[C@@H]1C[C@@H](O)CN1C(=O)[C@@H]1CCCN1C(=O)CNC(=O)[C@@H]1C[C@@H](O)CN1C(=O)[C@@H]1CCCN1C(=O)[C@@H](N)Cc1ccc(O)cc1)C(=O)N[C@@H](Cc1c[nH]cn1)C(=O)NCC(=O)N[C@@H](CC(C)C)C(=O)N1C[C@H](O)C[C@H]1C(=O)NCC(=O)N1CCC[C@H]1C(=O)N1C[C@H](O)C[C@H]1C(=O)NCC(=O)N1CCC[C@H]1C(=O)N1C[C@H](O)C[C@H]1C(=O)NCC(=O)N1CCC[C@H]1C(=O)N1C[C@H](O)C[C@H]1C(=O)NCC(=O)N1CCC[C@H]1C(=O)N1C[C@H](O)C[C@H]1C(=O)NCC(N)=O
notes: guest made of the residue most frequent at each position in the selection; Triple helix by CD; annealed before use; source: synthetic peptide (Fmoc solid phase, RP-HPLC purified)
B2: synthetic triple-helical peptide pep10 (peptide)
chain: B1 chain with R17P, L20F, H21T, L23F
HELM: PEPTIDE1{Y.P.[Hyp].G.P.[Hyp].G.P.[Hyp].G.P.[Hyp].G.P.R.G.P.R.G.F.T.G.F.[Hyp].G.P.[Hyp].G.P.[Hyp].G.P.[Hyp].G.P.[Hyp].G.[am]}$$$$V2.0; N-terminus assumed
SMILES: C[C@@H](O)[C@H](NC(=O)[C@H](Cc1ccccc1)NC(=O)CNC(=O)[C@H](CCCNC(=N)N)NC(=O)[C@@H]1CCCN1C(=O)CNC(=O)[C@H](CCCNC(=N)N)NC(=O)[C@@H]1CCCN1C(=O)CNC(=O)[C@@H]1C[C@@H](O)CN1C(=O)[C@@H]1CCCN1C(=O)CNC(=O)[C@@H]1C[C@@H](O)CN1C(=O)[C@@H]1CCCN1C(=O)CNC(=O)[C@@H]1C[C@@H](O)CN1C(=O)[C@@H]1CCCN1C(=O)CNC(=O)[C@@H]1C[C@@H](O)CN1C(=O)[C@@H]1CCCN1C(=O)[C@@H](N)Cc1ccc(O)cc1)C(=O)NCC(=O)N[C@@H](Cc1ccccc1)C(=O)N1C[C@H](O)C[C@H]1C(=O)NCC(=O)N1CCC[C@H]1C(=O)N1C[C@H](O)C[C@H]1C(=O)NCC(=O)N1CCC[C@H]1C(=O)N1C[C@H](O)C[C@H]1C(=O)NCC(=O)N1CCC[C@H]1C(=O)N1C[C@H](O)C[C@H]1C(=O)NCC(=O)N1CCC[C@H]1C(=O)N1C[C@H](O)C[C@H]1C(=O)NCC(N)=O
notes: Triple helix by CD; annealed before use; source: synthetic peptide (Fmoc solid phase, RP-HPLC purified)
B3: synthetic triple-helical peptide pep7 (peptide)
chain: B1 chain with R15K, L20F
HELM: PEPTIDE1{Y.P.[Hyp].G.P.[Hyp].G.P.[Hyp].G.P.[Hyp].G.P.K.G.R.R.G.F.H.G.L.[Hyp].G.P.[Hyp].G.P.[Hyp].G.P.[Hyp].G.P.[Hyp].G.[am]}$$$$V2.0; N-terminus assumed
SMILES: CC(C)C[C@H](NC(=O)CNC(=O)[C@H](Cc1c[nH]cn1)NC(=O)[C@H](Cc1ccccc1)NC(=O)CNC(=O)[C@H](CCCNC(=N)N)NC(=O)[C@H](CCCNC(=N)N)NC(=O)CNC(=O)[C@H](CCCCN)NC(=O)[C@@H]1CCCN1C(=O)CNC(=O)[C@@H]1C[C@@H](O)CN1C(=O)[C@@H]1CCCN1C(=O)CNC(=O)[C@@H]1C[C@@H](O)CN1C(=O)[C@@H]1CCCN1C(=O)CNC(=O)[C@@H]1C[C@@H](O)CN1C(=O)[C@@H]1CCCN1C(=O)CNC(=O)[C@@H]1C[C@@H](O)CN1C(=O)[C@@H]1CCCN1C(=O)[C@@H](N)Cc1ccc(O)cc1)C(=O)N1C[C@H](O)C[C@H]1C(=O)NCC(=O)N1CCC[C@H]1C(=O)N1C[C@H](O)C[C@H]1C(=O)NCC(=O)N1CCC[C@H]1C(=O)N1C[C@H](O)C[C@H]1C(=O)NCC(=O)N1CCC[C@H]1C(=O)N1C[C@H](O)C[C@H]1C(=O)NCC(=O)N1CCC[C@H]1C(=O)N1C[C@H](O)C[C@H]1C(=O)NCC(N)=O
notes: as for B2
B4: synthetic triple-helical peptide pep3 (peptide)
chain: B1 chain with R17H, L20F, H21L
HELM: PEPTIDE1{Y.P.[Hyp].G.P.[Hyp].G.P.[Hyp].G.P.[Hyp].G.P.R.G.H.R.G.F.L.G.L.[Hyp].G.P.[Hyp].G.P.[Hyp].G.P.[Hyp].G.P.[Hyp].G.[am]}$$$$V2.0; N-terminus assumed
SMILES: CC(C)C[C@H](NC(=O)[C@H](Cc1ccccc1)NC(=O)CNC(=O)[C@H](CCCNC(=N)N)NC(=O)[C@H](Cc1c[nH]cn1)NC(=O)CNC(=O)[C@H](CCCNC(=N)N)NC(=O)[C@@H]1CCCN1C(=O)CNC(=O)[C@@H]1C[C@@H](O)CN1C(=O)[C@@H]1CCCN1C(=O)CNC(=O)[C@@H]1C[C@@H](O)CN1C(=O)[C@@H]1CCCN1C(=O)CNC(=O)[C@@H]1C[C@@H](O)CN1C(=O)[C@@H]1CCCN1C(=O)CNC(=O)[C@@H]1C[C@@H](O)CN1C(=O)[C@@H]1CCCN1C(=O)[C@@H](N)Cc1ccc(O)cc1)C(=O)NCC(=O)N[C@@H](CC(C)C)C(=O)N1C[C@H](O)C[C@H]1C(=O)NCC(=O)N1CCC[C@H]1C(=O)N1C[C@H](O)C[C@H]1C(=O)NCC(=O)N1CCC[C@H]1C(=O)N1C[C@H](O)C[C@H]1C(=O)NCC(=O)N1CCC[C@H]1C(=O)N1C[C@H](O)C[C@H]1C(=O)NCC(=O)N1CCC[C@H]1C(=O)N1C[C@H](O)C[C@H]1C(=O)NCC(N)=O
notes: as for B2
B5: synthetic triple-helical peptide pep5 (peptide)
chain: B1 chain with R17P, H21T, L23F
HELM: PEPTIDE1{Y.P.[Hyp].G.P.[Hyp].G.P.[Hyp].G.P.[Hyp].G.P.R.G.P.R.G.L.T.G.F.[Hyp].G.P.[Hyp].G.P.[Hyp].G.P.[Hyp].G.P.[Hyp].G.[am]}$$$$V2.0; N-terminus assumed
SMILES: CC(C)C[C@H](NC(=O)CNC(=O)[C@H](CCCNC(=N)N)NC(=O)[C@@H]1CCCN1C(=O)CNC(=O)[C@H](CCCNC(=N)N)NC(=O)[C@@H]1CCCN1C(=O)CNC(=O)[C@@H]1C[C@@H](O)CN1C(=O)[C@@H]1CCCN1C(=O)CNC(=O)[C@@H]1C[C@@H](O)CN1C(=O)[C@@H]1CCCN1C(=O)CNC(=O)[C@@H]1C[C@@H](O)CN1C(=O)[C@@H]1CCCN1C(=O)CNC(=O)[C@@H]1C[C@@H](O)CN1C(=O)[C@@H]1CCCN1C(=O)[C@@H](N)Cc1ccc(O)cc1)C(=O)N[C@H](C(=O)NCC(=O)N[C@@H](Cc1ccccc1)C(=O)N1C[C@H](O)C[C@H]1C(=O)NCC(=O)N1CCC[C@H]1C(=O)N1C[C@H](O)C[C@H]1C(=O)NCC(=O)N1CCC[C@H]1C(=O)N1C[C@H](O)C[C@H]1C(=O)NCC(=O)N1CCC[C@H]1C(=O)N1C[C@H](O)C[C@H]1C(=O)NCC(=O)N1CCC[C@H]1C(=O)N1C[C@H](O)C[C@H]1C(=O)NCC(N)=O)[C@@H](C)O
notes: as for B2
B6: synthetic triple-helical peptide pepα1(I)930-938: H-Tyr-(Pro-Hyp-Gly)4-Pro-Lys-Gly-His-Arg-Gly-Phe-Ser-Gly-Leu-Hyp-Gly-(Pro-Hyp-Gly)4-NH2 (peptide)
chain: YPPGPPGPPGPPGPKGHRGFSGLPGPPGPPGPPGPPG
modifications: 4-hydroxyproline (Hyp, written P in letters) at positions 3, 6, 9, 12, 24, 27, 30, 33, 36 of the chain (counted from the printed formula); C-terminal amide
notes: Tyr-(Pro-Hyp-Gly)4-Pro host; Hyp-Gly-(Pro-Hyp-Gly)4 host; Triple helix by CD; annealed before use; source: synthetic peptide (Fmoc solid phase, RP-HPLC purified)
B7: synthetic triple-helical peptide pep6 (peptide)
chain: B1 chain with R15N, L20F, H21M, L23M
HELM: PEPTIDE1{Y.P.[Hyp].G.P.[Hyp].G.P.[Hyp].G.P.[Hyp].G.P.N.G.R.R.G.F.M.G.M.[Hyp].G.P.[Hyp].G.P.[Hyp].G.P.[Hyp].G.P.[Hyp].G.[am]}$$$$V2.0; N-terminus assumed
SMILES: CSCC[C@H](NC(=O)[C@H](Cc1ccccc1)NC(=O)CNC(=O)[C@H](CCCNC(=N)N)NC(=O)[C@H](CCCNC(=N)N)NC(=O)CNC(=O)[C@H](CC(N)=O)NC(=O)[C@@H]1CCCN1C(=O)CNC(=O)[C@@H]1C[C@@H](O)CN1C(=O)[C@@H]1CCCN1C(=O)CNC(=O)[C@@H]1C[C@@H](O)CN1C(=O)[C@@H]1CCCN1C(=O)CNC(=O)[C@@H]1C[C@@H](O)CN1C(=O)[C@@H]1CCCN1C(=O)CNC(=O)[C@@H]1C[C@@H](O)CN1C(=O)[C@@H]1CCCN1C(=O)[C@@H](N)Cc1ccc(O)cc1)C(=O)NCC(=O)N[C@@H](CCSC)C(=O)N1C[C@H](O)C[C@H]1C(=O)NCC(=O)N1CCC[C@H]1C(=O)N1C[C@H](O)C[C@H]1C(=O)NCC(=O)N1CCC[C@H]1C(=O)N1C[C@H](O)C[C@H]1C(=O)NCC(=O)N1CCC[C@H]1C(=O)N1C[C@H](O)C[C@H]1C(=O)NCC(=O)N1CCC[C@H]1C(=O)N1C[C@H](O)C[C@H]1C(=O)NCC(N)=O
notes: as for B2
B8: synthetic triple-helical peptide pep11 (peptide)
chain: B1 chain with R15V, H21S
HELM: PEPTIDE1{Y.P.[Hyp].G.P.[Hyp].G.P.[Hyp].G.P.[Hyp].G.P.V.G.R.R.G.L.S.G.L.[Hyp].G.P.[Hyp].G.P.[Hyp].G.P.[Hyp].G.P.[Hyp].G.[am]}$$$$V2.0; N-terminus assumed
SMILES: CC(C)C[C@H](NC(=O)CNC(=O)[C@H](CCCNC(=N)N)NC(=O)[C@H](CCCNC(=N)N)NC(=O)CNC(=O)[C@@H](NC(=O)[C@@H]1CCCN1C(=O)CNC(=O)[C@@H]1C[C@@H](O)CN1C(=O)[C@@H]1CCCN1C(=O)CNC(=O)[C@@H]1C[C@@H](O)CN1C(=O)[C@@H]1CCCN1C(=O)CNC(=O)[C@@H]1C[C@@H](O)CN1C(=O)[C@@H]1CCCN1C(=O)CNC(=O)[C@@H]1C[C@@H](O)CN1C(=O)[C@@H]1CCCN1C(=O)[C@@H](N)Cc1ccc(O)cc1)C(C)C)C(=O)N[C@@H](CO)C(=O)NCC(=O)N[C@@H](CC(C)C)C(=O)N1C[C@H](O)C[C@H]1C(=O)NCC(=O)N1CCC[C@H]1C(=O)N1C[C@H](O)C[C@H]1C(=O)NCC(=O)N1CCC[C@H]1C(=O)N1C[C@H](O)C[C@H]1C(=O)NCC(=O)N1CCC[C@H]1C(=O)N1C[C@H](O)C[C@H]1C(=O)NCC(=O)N1CCC[C@H]1C(=O)N1C[C@H](O)C[C@H]1C(=O)NCC(N)=O
notes: as for B2

Biological target: the molecule itself
Assay: circular dichroism with thermal melting; peptides in PBS, heated at 95 °C, annealed at 4 °C overnight; [θ]225 followed from 4 to 85 °C; chains of one peptide forming a triple helix

Row | Protein | binding result
1 | B1 | binds
2 | B2 | binds
3 | B3 | binds
4 | B4 | binds
5 | B5 | binds
6 | B6 | binds
7 | B7 | binds
8 | B8 | binds
